Laboratory results as given in US20250179152A1 (TEXAS A AND M UNIVERSITY SYSTEM, published 2025).

Biological target: RBD protein of SARS-COV-1 (SARS-CoV-1, UniProt P59594 306-527)
Assay: ELISA ('the same binding assay')

B1: FSR16m (designed binder)
chain: MGMEQKLISEEDLDGYIPEAPRDGQAYVRKDGEWVLLSTFLGGGGSLQGGGGSLQGSDLGKKLLEAARAGQDDEVRILMANGADVNALDLFGVTPLHLAAERGHLEIVEVLLKNGADVNAGDAFGRTPLHLAALGGHLEIVEVLLKNGADVNACDLYGVTPLHLAAGLGHLEIVEVLLKNGADVNAQDKFGKTAFDISIDNGNEDLAEILQSSSKLAAALEHHHHHH
binding result: no binding
